Source: the supplement of paper PMC5998384

Experiments:
HeLa Kyoto [1] = assay: solubility change mitosis vs G1/S (difference of NP-40 vs SDS log2 ratios) (log2 ratio difference); higher = more soluble in mitosis
HeLa Kyoto [2] = assay: melting temperature (median over replicates), in situ; higher = more thermally stable
HeLa Kyoto [3] = assay: solubility in G1/S (NP-40 vs SDS abundance) (log2 ratio); higher = more soluble; details: cell cycle stage: G1/S
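Wherever melting temperature (median over replicates), in situ is given: HeLa Kyoto cells synchronized by double thymidine or nocodazole block, proteins quantified by TMT10plex mass spectrometry, three independent biological replicates.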
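Wherever solubility change mitosis vs G1/S (difference of NP-40 vs SDS log2 ratios) is given: synchronized HeLa Kyoto cells (double thymidine block for G1/S, nocodazole release for mitosis), protein amounts in NP-40 versus SDS lysates quantified by mass spectrometry, three biological replicates.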
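Wherever solubility in G1/S (NP-40 vs SDS abundance) is given: HeLa Kyoto cells arrested at G1/S by double thymidine block, proteins quantified by TMT10plex mass spectrometry in mild NP-40 versus SDS extracts, three biological replicates.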

Substance	solubility change mitosis (log2) (HeLa Kyoto [1])	melting temperature (HeLa Kyoto [2]; cell cycle stage: mitosis) [°C]	solubility in G1/S (log2) (HeLa Kyoto [3])	melting temperature (HeLa Kyoto [2]; cell cycle stage: G1/S) [°C]
MALITLRKNLYRLSDFQMHRALAALKNKPLNHVHKVVKERLCPWLCSRQPEPFGVKFHHAHCKKFHSKNGNDLHPLGGPVFSQVSDCDRLEQNVKNEESQMFYRRLSNLTSSEEVLSFISTMETLPDTMAAGALQRICEVEKKDGDQGLPKEILENSIFQALCFQFEKEPSQLSNTSLVTALQALILLHVDPQSSLLLNLVAECQNRLRKGGMEVRNLCILGESLITLHSSGCVTLELIINQLQGEKLETFTPEDIVALYRILQACTEKVDEHQTFLNKINNFSLSIVSNLSPKLISQMLTALVVLDQSQAFPLIIKLGKYVVRHVPHFTNEELRRVLEAFIYFGHHDTFFTKALEHRVAAVCLTLDPEVVCRVMEYCSRELILSKPILNAVAETFVCQTEKFSPRQISALMEPFGKLNYLPPNASALFRKLENVLFTHFNYFPPKSLLKLLHSCSLNECHPVNFLAKIFKPLFLQRLQGKESHLDTLSRAQLTQLFLASVLECPFYKGPKLLPKYQVKSFLTPCCSLETPVDSQLYRYVKIGLTNLLGARLYFAPKVLTPYCYTIDVEIKLDEEGFVLPSTANEDIHKRIALCIDGPKRFCSNSKHLLGKEAIKQRHLQLLGYQVVQIPYHEIGMLKSRRELVEYLQRKLFSQNTVHWLQE [FASTKD3]	-0.151	47.8	-0.00458	
MGFLRRLIYRRRPMIYVESSEESSDEQPDEVESPTQSQDSTPAEEREDEGASAAQGQEPEADSQELVQPKTGCELGDGPDTKRVCLRNEEQMKLPAEGPEPEADSQEQVHPKTGCERGDGPDVQELGLPNPEEVKTPEEDEGQSQP [PAGE1]	0.603	51.6	-0.617	53.3
MDFENLFSKPPNPALGKTATDSDERIDDEIDTEVEETQEEKIKLECEQIPKKFRHSAISPKSSLHRKSRSKDYDVYSDNDICSQESEDNFAKELQQYIQAREMANAAQPEESTKKEGVKDTPQAAKQKNKNLKAGHKNGKQKKMKRKWPGPGNKGSNALLRNSGSQEEDGKPKEKQQHLSQAFINQHTVERKGKQICKYFLERKCIKGDQCKFDHDAEIEKKKEMCKFYVQGYCTRGENCLYLHNEYPCKFYHTGTKCYQGEYCKFSHAPLTPETQELLAKVLDTEKKSCK [ZC3H8]	0.444	55.1	-0.126	55.1
MGSTVPRSASVLLLLLLLRRAEQPCGAELTFELPDNAKQCFHEEVEQGVKFSLDYQVITGGHYDVDCYVEDPQGNTIYRETKKQYDSFTYRAEVKGVYQFCFSNEFSTFSHKTVYFDFQVGDEPPILPDMGNRVTALTQMESACVTIHEALKTVIDSQTHYRLREAQDRARAEDLNSRVSYWSVGETIALFVVSFSQVLLLKSFFTEKRPISRAVHS [TMED3]	-0.000936	53.4	-0.0742	53.4
RPL22L1	0.209	52	-0.564	53.8
MFAKLKKKIAEETAVAQRPGGATRIPRSVSKESVASMGADSGDDFASDGSSSREDLSSQLLRRNEQIRKLEARLSDYAEQVRNLQKIKEKLEIALEKHQDSSMRKFQEQNETFQANRAKMAEGLALALARKDQEWSEKMDQLEKEKNILTAQLQEMKNQSMNLFQRRDEMDELEGFQQQELSKIKHMLLKKEESLGKMEQELEARTRELSRTQEELMNSNQMSSDLSQKLEELQRHYSTLEEQRDHVIASKTGAESKITALEQKEQELQALIQQLSIDLQKVTAETQEKEDVITHLQEKVASLEKRLEQNLSGEEHLQELLKEKTLAEQNLEDTRQQLLAARSSQAKAINTLETRVRELEQTLQASEEQLQQSKGIVAAQETQIQELAAANQESSHVQQQALALEQQFLERTQALEAQIVALERTRAADQTTAEQGMRQLEQENAALKECRNEYERSLQNHQFELKKLKEEWSQREIVSVAMAQALEEVRKQREEFQQQAANLTAIIDEKEQNLREKTEVLLQKEQEILQLERGHNSALLQIHQLQAELEALRTLKAEEAAVVAEQEDLLRLRGPLQAEALSVNESHVTSRAMQDPVFQLPTAGRTPNGEVGAMDLTQLQKEKQDLEQQLLEKNKTIKQMQQRMLELRKTLQKELKIRPDNELFEVREKPGPEMANMAPSVTNNTDLTDAREINFEYLKHVVLKFMSCRESEAFHLIKAVSVLLNFSQEEENMLKETLEYKMSWFGSKPAPKGSIRPSISNPRIPWS [GOLGA1]	0.0219		0.556	49.5
MRGAGPSPRQSPRTLRPDPGPAMSFFRRKVKGKEQEKTSDVKSIKASISVHSPQKSTKNHALLEAAGPSHVAINAISANMDSFSSSRTATLKKQPSHMEAAHFGDLGRSCLDYQTQETKSSLSKTLEQVLHDTIVLPYFIQFMELRRMEHLVKFWLEAESFHSTTWSRIRAHSLNTVKQSSLAEPVSPSKKHETTASFLTDSLDKRLEDSGSAQLFMTHSEGIDLNNRTNSTQNHLLLSQECDSAHSLRLEMARAGTHQVSMETQESSSTLTVASRNSPASPLKELSGKLMKSIEQDAVNTFTKYISPDAAKPIPITEAMRNDIIARICGEDGQVDPNCFVLAQSIVFSAMEQEHFSEFLRSHHFCKYQIEVLTSGTVYLADILFCESALFYFSEYMEKEDAVNILQFWLAADNFQSQLAAKKGQYDGQEAQNDAMILYDKYFSLQATHPLGFDDVVRLEIESNICREGGPLPNCFTTPLRQAWTTMEKVFLPGFLSSNLYYKYLNDLIHSVRGDEFLGGNVSLTAPGSVGPPDESHPGSSDSSASQSSVKKASIKILKNFDEAIIVDAASLDPESLYQRTYAGKMTFGRVSDLGQFIRESEPEPDVRKSKGSMFSQAMKKWVQGNTDEAQEELAWKIAKMIVSDIMQQAQYDQPLEKSTKL [AKAP10]	-0.166	49.8	0.00407	
MSQATKRKHVVKEVLGEHIVPSDQQQIVRVLRTPGNNLHEVETAQGQRFLVSMPSKYRKNIWIKRGDFLIVDPIEEGEKVKAEISFVLCKDHVRSLQKEGFWPEAFSEVAEKHNNRNRQTQPELPAEPQLSGEESSSEDDSDLFVNTNRRQYHESEEESEEEEAA [EIF1AD]	-0.0155	53.3	0.37	53.5
